Source: US11673916B2, “Neuroprotective peptides and methods of their use” (University of Pittsburgh—Of the Commonwealth System of …, priority 2020, dated 2023)

Columns and labels:
[1] = target: T1, Kv2.1-mediated potassium currents (Rattus norvegicus, UniProt P15387); assay: Whole-cell voltage clamp of Kv2.1-mediated potassium current densities with or without TBOA; assay type: cell-based; conditions: voltage step from -80 mV to 30 mV, mean±SEM (FIG. 4A)
T1 construct: endogenous in cells; host or cells: primary rat cortical neurons
T1 sequence (P15387 1-857): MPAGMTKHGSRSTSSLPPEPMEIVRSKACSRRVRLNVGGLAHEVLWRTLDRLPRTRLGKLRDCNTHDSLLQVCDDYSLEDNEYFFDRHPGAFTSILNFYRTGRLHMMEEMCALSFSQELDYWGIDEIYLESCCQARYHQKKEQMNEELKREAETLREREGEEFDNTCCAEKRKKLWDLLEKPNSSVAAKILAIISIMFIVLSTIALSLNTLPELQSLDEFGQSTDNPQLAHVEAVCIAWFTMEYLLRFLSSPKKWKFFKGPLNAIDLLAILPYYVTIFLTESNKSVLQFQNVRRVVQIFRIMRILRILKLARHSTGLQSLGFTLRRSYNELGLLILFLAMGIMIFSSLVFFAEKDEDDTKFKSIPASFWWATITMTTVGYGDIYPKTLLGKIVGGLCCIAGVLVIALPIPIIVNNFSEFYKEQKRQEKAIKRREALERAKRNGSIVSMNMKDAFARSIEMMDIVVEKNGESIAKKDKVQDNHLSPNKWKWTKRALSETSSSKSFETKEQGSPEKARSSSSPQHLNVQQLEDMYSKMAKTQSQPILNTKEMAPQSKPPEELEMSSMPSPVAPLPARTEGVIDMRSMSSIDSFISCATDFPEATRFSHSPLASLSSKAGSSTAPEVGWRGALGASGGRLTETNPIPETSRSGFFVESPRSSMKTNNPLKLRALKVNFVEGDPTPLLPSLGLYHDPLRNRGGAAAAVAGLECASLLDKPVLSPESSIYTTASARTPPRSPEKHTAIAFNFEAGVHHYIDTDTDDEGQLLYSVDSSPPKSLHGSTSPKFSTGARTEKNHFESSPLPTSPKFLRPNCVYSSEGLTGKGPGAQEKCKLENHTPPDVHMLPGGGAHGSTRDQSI

[2] = target: T2, Kv2.1-VAPA association (Rattus norvegicus, UniProt P15387+Q9Z270); assay: Proximity ligation assay (PLA) of Kv2.1-VAPA association in cortical neurons; assay type: cell-based; conditions: 10 μM peptide, 2-hour treatment, means+/-SEM (FIG. 3C)
T2 construct: endogenous in cells; host or cells: primary rat cortical neurons (untransfected, fixed and immunolabelled)
T2 sequence (P15387 1-857): T1 sequence (P15387 1-857)
T2 sequence (Q9Z270 2-249 limits assumed): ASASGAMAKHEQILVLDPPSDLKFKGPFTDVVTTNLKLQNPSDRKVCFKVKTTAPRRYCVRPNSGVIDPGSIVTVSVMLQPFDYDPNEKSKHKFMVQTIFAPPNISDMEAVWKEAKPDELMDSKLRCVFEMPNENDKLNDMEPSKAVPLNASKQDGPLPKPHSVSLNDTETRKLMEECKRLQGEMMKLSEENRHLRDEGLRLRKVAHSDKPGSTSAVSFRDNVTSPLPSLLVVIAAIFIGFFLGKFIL
Protocol: Duolink proximity ligation assay (PLA) technology (Sigma-Aldrich, St. Louis, Mo.) was utilized to assess in situ protein-protein interaction between Kv2.1 and vesicle-associated […] protein (VAMP)-associated protein A (VAPA). Primary cortical neurons on glass coverslips were treated in 24-well plates with vehicle (dH2O), TAT-Sc-2 (10 μM), or TAT-DP-2 (10 μM) for 2 hours at 37° C./5% CO2. Neurons were then rinsed with 2 mL ice-cold sterile PBS and then transferred to 1 mL 4% paraformaldehyde (PFA) in PBS for 20 minutes to fix. Coverslips were transferred to 1 mL 0.1 M glycine (in PBS) to quench fixation and rinsed three times in 1 mL PBS. […]
PLA puncta were imaged on a Nikon A1+ confocal microscope (Nikon, Tokyo, Japan) with a 60× objective. […] PLA puncta signals were then obtained by capturing 25 optical sections (0.5 μm) that constrained the entire Z-width of PLA-TRITC fluorescence as MAX-IP files. […] NIS-Elements AR object count feature was then utilized to analyze the quantity of PLA puncta per cell. […] As distinct local PLA puncta-TRITC auto-fluorescence (markedly different in appearance from PLA puncta) was noted, local background subtraction using a small ROI within this region was performed in a protocol similar to that described earlier (Glynn, et al., Nat Protoc. 1: 1287-1296, 2006). […]

[3] = 10 μM peptide + TBOA (60 μM), 3-5 hours after treatment

| Sequence | mean Kv2.1-mediated potassium current density [1, 3] [pA/pF] | mean Kv2.1-mediated potassium current density ([1]; 10 μM peptide without TBOA) [pA/pF] | PLA puncta per square micron of neuronal soma [2] |
| --- | --- | --- | --- |
| YGRKKRRQRRRDFSSIST [TAT-Sc-2, TAT-linked scramble control peptide] | 130.80±9.43 | 71.42±10.27 | 0.10+/−0.06 #PLA puncta/sq. micron of cell soma |
| YGRKKRRQRRRSIDSFTS [TAT-DP-2, TAT-linked declustering peptide 2] | 65.68±12.07 | 66.86±4.76 | 0.06+/−0.01 #PLA puncta/sq. micron of cell soma |
